Measurements from US20250243284A1.

What was measured:
[1] = molecular target: FGFR2 isoform FGFR2-IIIb (FGFR2b), on the surface of cancer cell lines (UniProt P21802); experiment: flow cytometry on BT20 cells (TNBC), detected with APC anti-human IgG1
[2] = molecular target: FGFR2 isoform FGFR2-IIIb (FGFR2b), on the surface of cancer cell lines (UniProt P21802); experiment: flow cytometry on HCC38 cells (TNBC), detected with APC anti-human IgG1
[3] = molecular target: FGFR2 isoform FGFR2-IIIb (FGFR2b), on the surface of cancer cell lines (UniProt P21802); experiment: flow cytometry on HCC1187 cells (TNBC), detected with APC anti-human IgG1
[4] = molecular target: FGFR2 isoform FGFR2-IIIb (FGFR2b), on the surface of cancer cell lines (UniProt P21802); experiment: flow cytometry on HCC1569 cells (TNBC), detected with APC anti-human IgG1
[5] = molecular target: FGFR2 isoform FGFR2-IIIb (FGFR2b), on the surface of cancer cell lines (UniProt P21802); experiment: flow cytometry on HCC1806 cells (TNBC), detected with APC anti-human IgG1
[6] = molecular target: FGFR2 isoform FGFR2-IIIb (FGFR2b), on the surface of cancer cell lines (UniProt P21802); experiment: flow cytometry on HCC1937 cells (TNBC), detected with APC anti-human IgG1
[7] = molecular target: FGFR2 isoform FGFR2-IIIb (FGFR2b), on the surface of cancer cell lines (UniProt P21802); experiment: flow cytometry on HARA cells (squamous lung cancer), detected with APC anti-human IgG1
[8] = molecular target: FGFR2 isoform FGFR2-IIIb (FGFR2b), on the surface of cancer cell lines (UniProt P21802); experiment: flow cytometry on LC1F cells (squamous lung cancer), detected with APC anti-human IgG1
[9] = molecular target: FGFR2 isoform FGFR2-IIIb (FGFR2b), on the surface of cancer cell lines (UniProt P21802); experiment: flow cytometry on SW900 cells (squamous lung cancer), detected with APC anti-human IgG1
[10] = molecular target: FGFR2 isoform FGFR2-IIIb (FGFR2b), on the surface of cancer cell lines (UniProt P21802); experiment: flow cytometry on KNS-62 cells (squamous lung cancer), detected with APC anti-human IgG1
[11] = molecular target: FGFR2 isoform FGFR2-IIIb (FGFR2b), on the surface of cancer cell lines (UniProt P21802); experiment: flow cytometry on LUDLU1 cells (squamous lung cancer), detected with APC anti-human IgG1
[12] = molecular target: FGFR2 isoform FGFR2-IIIb (FGFR2b), on the surface of cancer cell lines (UniProt P21802); experiment: flow cytometry on SW1573 cells (squamous lung cancer), detected with APC anti-human IgG1
[13] = molecular target: FGFR2 isoform FGFR2-IIIb (FGFR2b), on the surface of cancer cell lines (UniProt P21802); experiment: flow cytometry on NCIH2170 cells (squamous lung cancer), detected with APC anti-human IgG1
[14] = molecular target: FGFR2 isoform FGFR2-IIIb (FGFR2b), on the surface of cancer cell lines (UniProt P21802); experiment: flow cytometry on EPLC-272H cells (squamous lung cancer), detected with APC anti-human IgG1
[15] = molecular target: FGFR2 isoform FGFR2-IIIb (FGFR2b), on the surface of cancer cell lines (UniProt P21802); experiment: flow cytometry on SNU16 cells (gastric cancer, positive control), detected with APC anti-human IgG1
[16] = molecular target: FGFR2 isoform FGFR2-IIIb (FGFR2b), on the surface of cancer cell lines (UniProt P21802); experiment: flow cytometry on KATOIII cells (gastric cancer, positive control), detected with APC anti-human IgG1
[17] = molecular target: FGFR2 isoform FGFR2-IIIb (FGFR2b), on the surface of cancer cell lines (UniProt P21802); experiment: flow cytometry on SNU16-Luc cells (gastric cancer, positive control), detected with APC anti-human IgG1

B1: bemarituzumab (antibody, human IgG1, kappa, V domains shown)
VH: QVQLVQSGAEVKKPGSSVKVSCKASGYIFTTYNVHWVRQAPGQGLEWIGSIYPDNGDTSYNQNFKGRATITADKSTSTAYMELSSLRSEDTAVYYCARGDFAYWGQGTLVTVSS
VL: DIQMTQSPSSLSASVGDRVTITCKASQGVSNDVAWYQQKPGKAPKLLIYSASYRYTGVPSRFSGSGSGTDFTFTISSLQPEDIATYYCQQHSTTPYTFGQGTKLEIKR
modifications: afucosylated: glycan at Asn297 (EU numbering) lacks core fucose
[1]
  Mean Fluorescence Intensity by FACS: 252 MFI
[2]
  Mean Fluorescence Intensity by FACS: 346 MFI
[3]
  Mean Fluorescence Intensity by FACS: -6 MFI
[4]
  Mean Fluorescence Intensity by FACS: 1360 MFI
[5]
  Mean Fluorescence Intensity by FACS: 401 MFI
[6]
  Mean Fluorescence Intensity by FACS: 690 MFI
[7]
  Mean Fluorescence Intensity by FACS: 401 MFI
[8]
  Mean Fluorescence Intensity by FACS: 123 MFI
[9]
  Mean Fluorescence Intensity by FACS: 10.3 MFI
[10]
  Mean Fluorescence Intensity by FACS: 572 MFI
[11]
  Mean Fluorescence Intensity by FACS: 638 MFI
[12]
  Mean Fluorescence Intensity by FACS: -1.2 MFI
[13]
  Mean Fluorescence Intensity by FACS: 153 MFI
[14]
  Mean Fluorescence Intensity by FACS: 759 MFI
[15]
  Mean Fluorescence Intensity by FACS: 7800 MFI
[16]
  Mean Fluorescence Intensity by FACS: 20400 MFI
[17]
  Mean Fluorescence Intensity by FACS: 7960 MFI
